Experimental data as given in article PMC6377682 (2019).
Each block holds one binder with its values, some of them ahead of it.

B4: human PP1β^6-327 (enzyme)
chain: LNVDSLITRLLEVRGCRPGKIVQMTEAEVRGLCIKSREIFLSQPILLELEAPLKICGDIHGQYTDLLRLFEYGGFPPEANYLFLGDYVDRGKQSLETICLLLAYKIKYPENFFLLRGNHECASINRIYGFYDECKRRFNIKLWKTFTDCFNCLPIAAIVDEKIFCCHGGLSPDLQSMEQIRRIMRPTDVPDTGLLCDLLWSDPDKDVQGWGENDRGVSFTFGADVVSKFLNRHDLDLICRAHQVVEDGYEFFAKRQLVTLFSAPNYCGEFDNAGGMMSVDETLMCSFQILKPSEKKAKYQYGGLNSGRPVTPPRTANPPKKR
B9: human ASPP2^920-1120 (domain or fragment)
chain: MRVKFNPLALLLDSSLEGEFDLVQRIIYEVDDPSLPNDEGITALHNAVCAGHTEIVKFLVQFGVNVNAADSDGWTPLHCAASCNNVQVCKFLVESGAAVFAMTYSDMQTAADKCEEMEEGYTQCSQFLYGVQEKMGIMNKGVIYALWDYEPQNDDELPMKEGDCMTIIHREDEDEIEWWWARLNDKEGYVPRNLLGLYPRI

Tests used:
human ASPP2^920-1120 = molecular target: B9; experiment: ITC
ASPP2^D1091G/E1092P = molecular target: T1, ASPP2^D1091G/E1092P (human, UniProt Q13625 920-1120, D1091G | E1092P); experiment: ITC
T1 sequence: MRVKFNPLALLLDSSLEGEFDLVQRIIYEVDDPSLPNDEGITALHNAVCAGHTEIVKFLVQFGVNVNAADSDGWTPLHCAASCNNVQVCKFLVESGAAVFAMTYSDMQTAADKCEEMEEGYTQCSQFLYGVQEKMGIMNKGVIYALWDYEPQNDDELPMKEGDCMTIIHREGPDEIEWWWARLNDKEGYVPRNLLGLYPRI

ASPP2^D1093S = molecular target: T2, ASPP2^D1093S (human, UniProt Q13625 920-1120, D1093S); experiment: BLI
T2 sequence: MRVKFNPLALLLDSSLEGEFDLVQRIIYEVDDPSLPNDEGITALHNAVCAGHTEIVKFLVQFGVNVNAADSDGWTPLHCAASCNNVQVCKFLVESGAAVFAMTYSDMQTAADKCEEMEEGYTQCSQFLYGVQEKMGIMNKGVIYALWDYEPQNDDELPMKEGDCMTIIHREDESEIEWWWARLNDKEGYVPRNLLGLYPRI

ASPP2^E1090K/D1093S = molecular target: T3, ASPP2^E1090K/D1093S (human, UniProt Q13625 920-1120, E1090K | D1093S); experiment: BLI
T3 sequence: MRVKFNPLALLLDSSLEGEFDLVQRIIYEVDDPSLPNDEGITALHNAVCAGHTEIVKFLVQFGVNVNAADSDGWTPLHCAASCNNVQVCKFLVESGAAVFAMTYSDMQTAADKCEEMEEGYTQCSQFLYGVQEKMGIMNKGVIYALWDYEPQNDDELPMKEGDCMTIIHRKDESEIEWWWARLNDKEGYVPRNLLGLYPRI

ASPP1^K1052E/S1055D = molecular target: T4, ASPP1^K1052E/S1055D (human, UniProt Q96KQ4 882-1090, K1052E | S1055D); experiment: BLI
T4 sequence: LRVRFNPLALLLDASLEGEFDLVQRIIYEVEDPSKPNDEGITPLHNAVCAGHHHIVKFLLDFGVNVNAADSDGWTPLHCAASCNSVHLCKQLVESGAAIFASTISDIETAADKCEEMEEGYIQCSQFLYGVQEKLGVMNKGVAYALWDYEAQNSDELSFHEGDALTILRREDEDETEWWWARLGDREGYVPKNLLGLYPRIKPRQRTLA

human PP1γ1^7-323 = human PP1γ1^7-323 (human, UniProt P36873 7-323); experiment: BLI
human PP1α^7-330 = human PP1α^7-330 (human, UniProt P62136 7-330); experiment: BLI
human PP1β^6-327 = molecular target: B4; experiment: BLI

Kd (human ASPP2^920-1120): 0.342 µM
B1: PP1α^301-330 K329A peptide (peptide)
peptide: KNKGKYGQFSGLNPGGRPITPPRNSAKAAK

Kd (ASPP2^D1091G/E1092P): 0.172 µM
B2: PP1α^301-330 C-tail peptide (peptide)
peptide: KNKGKYGQFSGLNPGGRPITPPRNSAKAKK

Kd (human ASPP2^920-1120): 0.52 µM
B3: PP1α^301-330 K327A peptide (peptide)
peptide: KNKGKYGQFSGLNPGGRPITPPRNSAAAKK

Binder: B4
Kd (ASPP2^D1093S): 0.136 µM | Kd (ASPP2^E1090K/D1093S): 0.178 µM | Kd (ASPP1^K1052E/S1055D): 0.0844 µM

Kd (human ASPP2^920-1120): 0.69 µM
B5: PP1γ1^298-323 C-tail peptide (peptide)
peptide: PAEKKKPNATRPVTPPRGMITKQAKK

Kd (human ASPP2^920-1120): 0.2 µM
B6: PP1β^297-327 chimera with the PP1α C-terminal residues NSAKAKK (peptide)
chain: PSEKKAKYQYGGLNSGRPVTPPRNSAKAKK
modifications: synthetic peptide, termini not stated; the end of the PPII motif (RPVTPPR) is taken as Arg319 by alignment with PP1α 317-323

Kd (human PP1γ1^7-323): 0.0049 µM | Kd (human PP1α^7-330): 0.0024 µM
B7: human iASPP^621-828 (domain or fragment)
chain: RRARLNPLVLLLDAALTGELEVVQQAVKEMNDPSQPNEEGITALHNAICGANYSIVDFLITAGANVNSPDSHGWTPLHCAASCNDTVICMALVQHGAAIFATTLSDGATAFEKCDPYREGYADCATYLADVEQSMGLMNSGAVYALWDYSAEFGDELSFREGESVTVLRRDGPEETDWWWAALHGQEGYVPRNYFGLFPRVKPQRSKV

Kd (human PP1γ1^7-323): 0.0606 µM | Kd (human PP1α^7-330): 0.059 µM | Kd (human PP1β^6-327): 0.0665 µM
B8: human ASPP1^882-1090 (domain or fragment)
chain: LRVRFNPLALLLDASLEGEFDLVQRIIYEVEDPSKPNDEGITPLHNAVCAGHHHIVKFLLDFGVNVNAADSDGWTPLHCAASCNSVHLCKQLVESGAAIFASTISDIETAADKCEEMEEGYIQCSQFLYGVQEKLGVMNKGVAYALWDYEAQNSDELSFHEGDALTILRRKDESETEWWWARLGDREGYVPKNLLGLYPRIKPRQRTLA

Binder: B9
Kd (human PP1γ1^7-323): 0.195 µM | Kd (human PP1β^6-327): 0.177 µM

Kd (human ASPP2^920-1120): 0.326 µM
B10: PP1γ2^297-324 chimera with the PP1α C-terminal residues NSAKAKK (peptide)
chain: KPAEKKKPNATRPVTPPRNSAKAKK
modifications: synthetic peptide, termini not stated; γ2 is identical to γ1 through the PPII motif (end taken as Arg314 by alignment), so the canonical entry is used

Kd (human ASPP2^920-1120): 0.965 µM
B11: PP1β^297-327 C-tail peptide (peptide)
peptide: PSEKKAKYQYGGLNSGRPVTPPRTANPPKKR

Kd (human ASPP2^920-1120): 0.326 µM
B12: PP1γ1^298-323 chimera with the PP1α C-terminal residues NSAKAKK (peptide)
chain: PAEKKKPNATRPVTPPRNSAKAKK
modifications: synthetic peptide, termini not stated; the end of the PPII motif (RPVTPPR) is taken as Arg314 by alignment with PP1α 317-323

Kd (human ASPP2^920-1120): 2.15 µM
B13: PP1γ2^297-324 C-tail peptide (peptide)
peptide: KPAEKKKPNATRPVTPPRVASGLNPSIQ

Kd (human ASPP2^920-1120): 0.326 µM
B14: PP1α^301-330 K330A peptide (peptide)
peptide: KNKGKYGQFSGLNPGGRPITPPRNSAKAKA
